Broadly, the EC50 is the concentration needed to bring the measured effect to its halfway point. Low readings indicate higher potency in that assay, high ones lower potency in that assay. As usually defined, the EC50 (read off the curve) is the concentration needed to bring the measured effect to its halfway point.

Consider five substances from patent US20240190939A1.

Assay [1] has as its target mouse LTbR on CHO-K1 cells (mouse) (UniProt P50284). In words: flow cytometry on CHO-K1 cells expressing murine LTbR (the sentence names the second value 'for mCD172a(SIRPα)'). In general terms: In flow cytometry, cells or beads pass a laser one at a time.
A further assay concerns the target CD47-His. The assay is described as follows: ELISA: hCD47 His capture, IgG HRP detection. (ELISA stands for enzyme-linked immunosorbent assay.)
Assay [2] concerns the target CD155PVR-His. The assay is described as follows: ELISA: CD155-His capture, IgG detection.
Assay [3] deals with mouse LTbR on CHO-K1 cells (mouse) (UniProt P50284). In words: flow cytometry on CHO-K1 cells expressing murine LTbR.
Sequence of mouse LTbR on CHO-K1 cells (mouse) (P50284 31-415): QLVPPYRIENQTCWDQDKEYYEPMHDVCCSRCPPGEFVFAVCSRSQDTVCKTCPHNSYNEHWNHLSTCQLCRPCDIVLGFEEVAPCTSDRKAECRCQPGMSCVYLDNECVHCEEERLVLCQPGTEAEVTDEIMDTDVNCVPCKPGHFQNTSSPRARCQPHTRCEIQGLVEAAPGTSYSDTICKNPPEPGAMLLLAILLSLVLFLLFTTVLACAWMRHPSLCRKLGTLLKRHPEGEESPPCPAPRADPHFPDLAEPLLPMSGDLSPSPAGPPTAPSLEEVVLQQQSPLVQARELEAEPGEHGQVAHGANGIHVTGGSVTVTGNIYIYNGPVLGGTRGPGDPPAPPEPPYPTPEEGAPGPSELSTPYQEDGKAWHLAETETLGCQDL
In assay [4] the target is CD155PVR-His. The assay is described as follows: ELISA: 'CD115/PVR Capture' as printed (legend: CD155PVR-His), Fc-HRP detection.
The next assay has as its target recombinant CD155. The assay is described as follows: ELISA: CD155/PVR capture, Fc-HRP detection.

Sequence of CD47-His (Q61735 19-140): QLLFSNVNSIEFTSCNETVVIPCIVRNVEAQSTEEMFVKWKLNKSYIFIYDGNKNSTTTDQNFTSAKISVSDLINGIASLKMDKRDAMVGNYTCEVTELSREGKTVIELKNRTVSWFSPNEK

Substance “murine CD172a(SIRPα)-Fc-LIGHT chimeric protein (from UniProt P97797 32-373) (Fc fusion)” came in with an EC50 in assay [1] of 24 nM.

SIRPa-Fc Std (Fc fusion) showed a half-maximal effective concentration (EC50 (read off the curve)) in the assay with CD47-His of 0.3 nM.

In the assay with CD155PVR-His [2], TIGIT-Fc Std (Fc fusion) displayed an EC50 (read off the curve) of 0.07 nM.

“murine TIGIT-Fc-LIGHT chimeric protein (from UniProt P86176 29-148) (Fc fusion)” gave a 50% effective concentration (EC50) in assay [3] of 11 nM.

TIGIT Std (receptor): the concentration giving a half-maximal response (EC50 (read off the curve)) with CD155PVR-His [4] and with recombinant CD155 was 10 nM throughout.
